In ChEMBL document CHEMBL1157682, “In silico prediction of human carboxylesterase-1 (hCES1) metabolism combining docking analyses and MD simulations” (Bioorg Med Chem, 2010):
Several values for one entry are separate records, joined by “and”; a condition that tells them apart may be missing. Equal entries are not always repeated.

How the values were obtained:
[1] = substrate: CC(C)C[C@H](N)C(=O)OC[C@H]1O[C@@H](n2cc(F)c(=O)[nH]c2=O)C[C@@H]1O; assay: (§1) Activity at human recombinant CES1 expressed in baculovirus-infected Spodoptera frugiperda Sf21 cells assessed as substrate hydrolysis by fluorescence assay
[2] = substrate: CCOC(=O)[C@H](CCc1ccccc1)N[C@@H](C)C(=O)N1Cc2ccccc2C[C@H]1C(=O)O; assay: as §1
[3] = substrate: CCOC(=O)[C@H](CCc1ccccc1)N[C@@H](C)C(=O)N1C(=O)N(C)C[C@H]1C(=O)O; assay: as §1
[4] = substrate: N[C@@H](CC(=O)O)C(=O)OC[C@H]1O[C@@H](n2cc(F)c(=O)[nH]c2=O)C[C@@H]1O; assay: as §1
[5] = substrate: COc1ccc(C(=O)N2CCCC2=O)cc1; assay: as §1
[6] = substrate: COc1cc(C(=O)OCCCN2CCCN(CCCOC(=O)c3cc(OC)c(OC)c(OC)c3)CC2)cc(OC)c1OC; assay: as §1
[7] = substrate: CCOC(=O)[C@H](CCc1ccccc1)N[C@H]1CCCN2CCC[C@@H](C(=O)O)N2C1=O; assay: as §1
[8] = substrate: CC(=O)Oc1ccc2c(C)cc(=O)oc2c1; assay: as §1
[9] = substrate: COc1ccc2cc([C@H](C#N)OC(=O)[C@@H]3[C@@H](C=C(Cl)Cl)C3(C)C)ccc2c1; assay: as §1
[10] = substrate: CCOC(=O)[C@H](CCc1ccccc1)N[C@@H](C)C(=O)N(CC(=O)O)C1Cc2ccccc2C1; assay: as §1
[11] = substrate: CCCCCOC(=O)Nc1nc(=O)n([C@@H]2O[C@H](C)[C@@H](O)[C@H]2O)cc1F; assay: as §1
[12] = substrate: CC(C)=C[C@H]1[C@H](C(=O)OCc2coc(Cc3ccccc3)c2)C1(C)C; assay: as §1
[13] = substrate: COC(=O)[C@H]1[C@@H](OC(=O)c2ccccc2)C[C@@H]2CC[C@H]1N2C; assay: as §1
[14] = substrate: CC(=O)O[C@H]1C=C[C@H]2[C@H]3Cc4ccc(O)c5c4[C@@]2(CCN3C)[C@H]1O5; assay: as §1
[15] = substrate: [H][C@@]1([C@@H](C(=O)OC)c2ccccc2)CCCCN1; assay: as §1
[16] = substrate: CCOC(=O)C1=C[C@@H](OC(CC)CC)[C@H](NC(C)=O)[C@@H](N)C1; assay: as §1
[17] = substrate: CCCC(=O)Oc1ccc([N+](=O)[O-])cc1; assay: as §1
[18] = substrate: COC(=O)[C@H](c1ccccc1)[C@H]1CCCCN1; assay: as §1
[19] = substrate: CC1(C)[C@@H](C=C(Cl)Cl)[C@@H]1C(=O)OCc1cccc(Oc2ccccc2)c1; assay: as §1
[20] = substrate: COc1ccc2cc([C@@H](C#N)OC(=O)[C@@H]3[C@@H](C=C(Cl)Cl)C3(C)C)ccc2c1; assay: as §1
[21] = substrate: CN(C)C(=O)COC(=O)Cc1ccc(OC(=O)c2ccc(NC(=N)N)cc2)cc1; assay: as §1
[22] = substrate: COc1ccc2cc([C@H](C#N)OC(=O)[C@H]3[C@@H](C=C(Cl)Cl)C3(C)C)ccc2c1; assay: as §1
[23] = substrate: CC(=O)Oc1ccc([N+](=O)[O-])cc1; assay: as §1
[24] = substrate: CCOC(=O)[C@H](CCc1ccccc1)N[C@H]1CS[C@H](c2cccs2)CN(CC(=O)O)C1=O; assay: as §1
[25] = substrate: CC1(C)[C@H](C=C(Cl)Cl)[C@@H]1C(=O)OCc1cccc(Oc2ccccc2)c1; assay: as §1
[26] = substrate: COc1ccc2cc([C@@H](C#N)OC(=O)[C@H]3[C@@H](C=C(Cl)Cl)C3(C)C)ccc2c1; assay: as §1
[27] = substrate: CC(C)[C@H](N)C(=O)OC[C@H]1O[C@@H](n2cc(F)c(=O)[nH]c2=O)C[C@@H]1O; assay: as §1
[28] = substrate: COc1ccc2cc(C(C#N)OC(=O)C3C(C)(C)C3(C)C)ccc2c1; assay: as §1
[29] = substrate: CC(=O)Oc1ccc2c3c1O[C@H]1[C@@H](OC(C)=O)C=C[C@H]4[C@@H](C2)N(C)CC[C@@]341; assay: as §1
[30] = substrate: COc1ccc2cc([C@H](C#N)OC(=O)[C@H]3[C@H](C=C(Cl)Cl)C3(C)C)ccc2c1; assay: as §1
[31] = substrate: N[C@@H](Cc1ccccc1)C(=O)OC[C@H]1O[C@@H](n2cc(F)c(=O)[nH]c2=O)C[C@@H]1O; assay: as §1
[32] = substrate: CCOC(=O)[C@H](CCc1ccccc1)N[C@H]1CCc2ccccc2N(CC(=O)O)C1=O; assay: as §1
[33] = substrate: COc1ccc2cc([C@@H](C#N)OC(=O)[C@H]3[C@H](C=C(Cl)Cl)C3(C)C)ccc2c1; assay: as §1
[34] = substrate: CCc1c2c(nc3ccc(OC(=O)N4CCC(N5CCCCC5)CC4)cc13)-c1cc3c(c(=O)n1C2)COC(=O)[C@]3(O)CC; assay: as §1
[35] = substrate: CCOC(=O)C1(c2ccccc2)CCN(C)CC1; assay: as §1
[36] = substrate: COc1ccc2cc([C@H](C#N)OC(=O)[C@@H]3[C@H](C=C(Cl)Cl)C3(C)C)ccc2c1; assay: as §1
[37] = substrate: CC1(C)[C@H](C(=O)OCc2cccc(Oc3ccccc3)c2)[C@@H]1C=C(Cl)Cl; assay: as §1
[38] = substrate: CC1(C)[C@H](C=C(Cl)Cl)[C@H]1C(=O)OCc1cccc(Oc2ccccc2)c1; assay: as §1
not read = substrate: COC(=O)[C@H](c1ccccc1Cl)N1CCc2sccc2C1; assay: not read

B1: Liver carboxylesterase 1 (Homo sapiens) (protein)
chain: MWLRAFILATLSASAAWGHPSSPPVVDTVHGKVLGKFVSLEGFAQPVAIFLGIPFAKPPLGPLRFTPPQPAEPWSFVKNATSYPPMCTQDPKAGQLLSELFTNRKENIPLKLSEDCLYLNIYTPADLTKKNRLPVMVWIHGGGLMVGAASTYDGLALAAHENVVVVTIQYRLGIWGFFSTGDEHSRGNWGHLDQVAALRWVQDNIASFGGNPGSVTIFGESAGGESVSVLVLSPLAKNLFHRAISESGVALTSVLVKKGDVKPLAEQIAITAGCKTTTSAVMVHCLRQKTEEELLETTLKMKFLSLDLQGDPRESQPLLGTVIDGMLLLKTPEELQAERNFHTVPYMVGINKQEFGWLIPMQLMSYPLSEGQLDQKTAMSLLWKSYPLVCIAKELIPEATEKYLGGTDDTVKKKDLFLDLIADVMFGVPSVIVARNHRDAGAPTYMYEFQYRPSFSSDMKPKTVIGDHGDELFSVFGAPFLKEGASEEEIRLSKMVMKFWANFARNGNPNGEGLPHWPEYNQKEGYLQIGANTQAAQKLKDKEVAFWTNLFAKKAVEKPPQTEHIEL
Question: Which results are given for B1?
Answer: Km [1]: 970 µM; Km [2]: 134 µM; Km [3]: 287 µM; Km [4]: 3000 µM; Km [5]: 85 µM and 95 µM; Km [6]: 154 µM; Km [7]: 1300 µM; Km [8]: 800 µM; Km [9]: 1.7 µM; Km [10]: 1500 µM; Km [11]: 1300 µM; Km [12]: 6.72 µM; Km [13]: 120 µM; Km [14]: 8300 µM; Km [15]: 89.9 µM; Km [16]: 177 µM; Km [17]: 130 µM; Km [18]: 43.8 µM; Km [19]: 9.8 µM; Km [20]: 0.7 µM; Km [21]: 707 µM; Km [22]: 1.5 µM; Km [23]: 359 µM; Km [24]: 786 µM; Km [25]: 23.8 µM; Km [26]: 1.4 µM; Km [27]: 3580 µM; Km [28]: 1.5 µM; Km [29]: 6300 µM; Km [30]: 1.9 µM; Km [31]: 460 µM; Km [32]: 734 µM; Km [33]: 2.4 µM; Km [34]: 1450 µM; Km [35]: 1900 µM; Km [36]: 0.3 µM; Km [37]: 23.8 µM; Km [38]: 9.8 µM; Km (not read): 55.7 µM
